As a reminder, the Kd is the equilibrium constant for the complex coming apart.

Results on 17 molecules are retold here after publication PMC5009254, “Accessory Interaction Motifs in the Atg19 Cargo Receptor Enable Strong Binding to the Clustered Ubiquitin-related Atg8 Protein*^([image sbox.jpg])” (The Journal of Biological Chemistry, 2016).

Assay [1] addresses T1, Atg8 (Saccharomyces cerevisiae, UniProt P38182, K26P).
T1 construct: Atg8 1–117; GST (N, cleaved yes); made in house; host or cells: Escherichia coli Rosetta pLysS DE3
The assay is described as follows: biochemical. Type of assay: binding.
Text: To test this hypothesis, we titrated 12 amino acid-long peptides containing the respective LIR-like motif in the center (Fig. 1) into labeled Atg8 and recorded the CSCs (Fig. 5). […] We attempted to determine a more exact Kd for the FYSF and LPEL peptides by isothermal titration calorimetry.
To corroborate our NMR-based interactions studies, we attempted to measure their interaction with Atg8 by isothermal titration calorimetry.

In assay [2] the target is GST-Atg19 CTD L384A, L387A (S. cerevisiae) (UniProt P35193). The assay is described as follows: microscopy-based protein-protein interaction assay on beads; glutathione-Sepharose beads coated with GST-Atg19 CTDs, washed, in 1 μM EGFP-Atg8 solution, 25 mM HEPES pH 7.5, 150 mM NaCl, 1 mM DTT; imaged by spinning disc microscopy without washing; signal normalized to wild type.

The target in assay [3] is GST-Atg19 CTD W412A (S. cerevisiae) (UniProt P35193). The description is as above.
The target in assay [4] is GST-Atg19 CTD F376A, F379A, L384A, L387A (S. cerevisiae) (UniProt P35193). The description is as above.
In another assay the target is T2, EGFP-Atg8, P38182.
T2 chain: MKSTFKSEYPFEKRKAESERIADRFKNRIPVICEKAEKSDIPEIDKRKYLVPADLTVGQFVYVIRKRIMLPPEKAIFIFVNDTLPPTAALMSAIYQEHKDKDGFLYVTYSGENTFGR
Nature of the assay: microscopy-based protein-protein interaction assay (GST-Atg19 CTD on glutathione-Sepharose beads, spinning disc microscopy). The note with it: chain shown with the change; 1 μm EGFP-Atg8 solution; parent: 100.

The target of assay [5] is T3, Atg8 K26P, 15N isotope-labeled (S. cerevisiae, UniProt P38182 1-117, K26P, 15N isotope-labeled).
T3 construct: Atg8, S. cerevisiae, amino acids 1-117, K26P mutant used for stability in NMR; Cloned in pGEX-4-T1; GST cut off with thrombin; also called [15N]Atg8; K26P mutant of Atg8; source: E. coli Rosetta pLysS DE3 in M9 minimal medium with [15N]ammonium chloride, purified (glutathione beads, thrombin, SEC)
T3 sequence (looked up): T2 chain with K26P
Nature of the assay: NMR titration; unlabeled Atg19 CTD or peptide titrated into 15N-labeled Atg8 K26P; 2D 15N HSQC at 25 °C; Atg8 135-500 μM, Atg19 C terminus 15-1000 μM; Kd estimated as the median of one-site saturation fits of CSCs of four to twelve Atg8 residues. Conditions: both partners purified.

The subject of a further assay is EGFP-Atg8. The assay is described as follows: Microscopy-based protein-protein interaction assay: EGFP-Atg8 recruited to glutathione-Sepharose beads coated with GST-Atg19 CTD. Conditions: GST-tagged Atg19 CTD on glutathione-Sepharose beads, 1 μM EGFP-Atg8, 30 min, spinning disc microscopy; mean of 3 experiments. Type of assay: binding, Saccharomyces cerevisiae. The source says:
To confirm the contributions of the ^376FYSF^379 and ^384LPEL^387 motifs for Atg8 binding, we employed a microscopy-based protein-protein interaction assay. To this end, EGFP-Atg8 in solution was recruited to glutathione-Sepharose beads coated with GST-Atg19 C termini (Fig. 6, A and B). Atg8 bound efficiently to beads coated with the wild-type C terminus. Upon introduction of the W412A mutation, the Atg8 signal on the beads dropped to 23%.
FIGURE 6. Accessory LIR motifs contribute to Atg8 binding in a microscopy-based interaction assay. A, glutathione-Sepharose beads were coated with GST-tagged Atg19 CTDs, washed, incubated in a 1 μM EGFP-Atg8 solution, and imaged by spinning disc microscopy. B, signal intensity of EGFP-Atg8 decreased for the LIR and accessory LIR mutants. C, quantification of the EGFP signal (mean ± S.D. from 3 experiments) on GST-Atg19 CTD-coated beads normalized to the mean signal on wild-type GST-Atg19 CTD-coated beads. Scale bars = 30 μm. TEXT PRINTED IN THE PICTURE: (B) W412A: relative binding (%): 23% | (B) L384, L387A: relative binding (%): 47% | (B) F376, F379, L384, L387A: relative binding (%): 25% | (B) L384, L387, W412A: relative binding (%): 7% | (B) F376, F379, L384, L387, W412A: relative binding (%): 2%
Glutathione-Sepharose 4B beads (GE Healthcare) were incubated with GST-tagged Atg19 C terminus for 1 h at 4 °C. After washing the beads three times with 25 mM HEPES (pH 7.5), 150 mM NaCl, and 1 mM DTT, 1 μl of a 1:1 resuspension of glutathione beads in protein solution was added to a 1 μM solution of EGFP-Atg8 30 min prior to imaging. Microscopic images were acquired using a confocal spinning disc microscope (Visitron) and processed with ImageJ software.

Assay [6] has as its target Atg8. The note with it: ITC-based Kd determination; read-out: Kd by ITC, full-length Atg19; cited from earlier work. In general terms: Isothermal titration calorimetry measures the heat released or taken up as one component is titrated into another.
Assay [7] concerns the target Atg8 used for isothermal titration calorimetry (S. cerevisiae) (UniProt P38182). Nature of the assay: ITC; peptides titrated, Atg8; conditions not given.

Residue numbers refer to the chain shown, from its start. Numbers in names are those of the source. Where no end group is shown, it is not given here.

T1 sequence (P38182 whole entry K26P): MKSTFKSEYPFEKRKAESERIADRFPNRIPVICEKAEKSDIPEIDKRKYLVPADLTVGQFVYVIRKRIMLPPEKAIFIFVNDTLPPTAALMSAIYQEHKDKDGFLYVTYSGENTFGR

GDDNEKALTWEEL [canonical LIR peptide] returned a Kd at Atg8 [1] of 2800 nM.

With “EGFP-Atg8 (from UniProt P38182 1-116) (natural protein)”, the EGFP-Atg8 signal on beads, percent of wild type in assay [2] came out at 47%; in assay [3], 23%; in [4], 25%.

B1: GST-Atg19 CTD, wild type, P35193 L384A; L387A; W412A (protein)
chain: SAESLQASQEPFYSFQIDTAPEADDSSIISTSISLSYDGDDNEKALTAEEL
Consider B1, for which the percent of parent with EGFP-Atg8, P38182 stood at 7%.

B2: Atg19 C-terminal domain (amino acids 365-415), wild type (domain or fragment, S. cerevisiae, UniProt P35193 365-415, looked up)
chain: B1 chain with A20L, A23L, A48W
notes: Atg19, S. cerevisiae, C-terminal domain, amino acids 365-415; also called Atg19 CTD; wild-type Atg19 C terminus; source: E. coli Rosetta pLysS DE3, purified (glutathione beads, thrombin, SEC)
As to B2, the Kd in assay [5] is approximately 130 µM.

B3: GST-Atg19 CTD, wild type, P35193 F376A; F379A; L384A; L387A; W412A (protein)
chain: B1 chain with F12A, F15A
For the molecule B3, in the assay with EGFP-Atg8, P38182, the percent of parent is 2%.

B4: Atg19 CTD F376A, F379A, W412A (amino acids 365-415) (domain or fragment, S. cerevisiae, UniProt P35193 365-415, looked up)
chain: B1 chain with F12A, F15A, A20L, A23L
notes: Atg19, S. cerevisiae, C-terminal domain, amino acids 365-415, F376A, F379A, W412A; also called FFWA; triple mutant C terminus; source: E. coli Rosetta pLysS DE3, purified (glutathione beads, thrombin, SEC)
In the case of B4, the Kd in assay [5] is 290 µM.

B5: Atg19 CTD L384A, L387A (amino acids 365-415) (domain or fragment, S. cerevisiae, UniProt P35193 365-415, looked up)
chain: B1 chain with A48W
notes: Atg19, S. cerevisiae, C-terminal domain, amino acids 365-415, L384A, L387A; also called LLA; source: E. coli Rosetta pLysS DE3, purified (glutathione beads, thrombin, SEC)
As to B5, in assay [5], the Kd was approximately 70 µM.

B6: Atg19 W412A CTD (amino acids 365-415) (domain or fragment, S. cerevisiae, UniProt P35193 365-415, looked up)
chain: B1 chain with A20L, A23L
notes: Atg19, S. cerevisiae, C-terminal domain, amino acids 365-415, W412A; also called WA; W412A mutant Atg19 CTD; source: E. coli Rosetta pLysS DE3, purified (glutathione beads, thrombin, SEC)
Take B6: the Kd in assay [5] is 180 µM.

B7: Atg19 CTD (amino acids 365-407) F376A, F379A, L384A, L387A (domain or fragment, S. cerevisiae, UniProt P35193 365-407, looked up)
chain: SAESLQASQEPAYSAQIDTAPEADDSSIISTSISLSYDGDDNE
notes: Atg19, S. cerevisiae, amino acids 365-407 (last eight amino acids 408-415 deleted), F376A, F379A, L384A, L387A; also called FFLLΔ; source: E. coli Rosetta pLysS DE3, purified (glutathione beads, thrombin, SEC)
Consider B7, for which the Kd in assay [5] is 600 µM.

B8: W412A (protein, UniProt P35193 1-415, looked up, variant W412A)
Autophagy-related protein 19: MNNSKTNQQMNTSMGYPLTVYDECNKFQLIVPTLDANIMLWCIGQLSLLNDSNGCKHLFWQPNDKSNVRILLNNYDYGHLFKYLQCQRKCSVYIGEGTLKKYNLTISTSFDNFLDLTPSEEKESLCREDAHEDPVSPKAGSEEEISPNSTSNVVVSRECLDNFMKQLLKLEESLNKLELEQKVTNKEPNHRISGTIDIPEDRSELVNFFTELKTVKQLEDVFQRYHDYERLSQECDSKTEIASDHSKKETKIEVEPPNERSLQITMNQRDNSLYFQLFNNTNSVLAGNCKLKFTDAGDKPTTQIIDMGPHEIGIKEYKEYRYFPYALDLEAGSTIEIENQYGEVIFLGKYGSSPMINLRPPSRLSAESLQASQEPFYSFQIDTLPELDDSSIISTSISLSYDGDDNEKALTAEEL
Regarding B8, the “relative binding (EGFP-Atg8 signal on beads, normalized to wild-type GST-Atg19 CTD)” value in the assay on EGFP-Atg8 stood at 23%.

B9: L384A, L387A (protein, UniProt P35193 1-415, looked up, variant L384A L387A)
Autophagy-related protein 19: B8 Autophagy-related protein 19 with L384A, L387A, A412W
Take B9: the “relative binding (EGFP-Atg8 signal on beads, normalized to wild-type GST-Atg19 CTD)” value in the assay with EGFP-Atg8 is 47%.

B10: full-length Atg19: full-length Atg19 cargo receptor of S. cerevisiae (protein, UniProt P35193 1-415, looked up)
chain: B8 Autophagy-related protein 19 with A412W
modifications: full-length
notes: full-length Atg19 cargo receptor of S. cerevisiae
As for B10, the Kd on Atg8 [6] was 35 µM.

B11: F376, F379, L384, L387A (protein, UniProt P35193 1-415, looked up, variant F376A F379A L384A L387A)
Autophagy-related protein 19: B8 Autophagy-related protein 19 with F376A, F379A, L384A, L387A, A412W
B11: the “relative binding (EGFP-Atg8 signal on beads, normalized to wild-type GST-Atg19 CTD)” value in the assay on EGFP-Atg8 stood at 25%.

B12: L384, L387, W412A (protein, UniProt P35193 1-415, looked up, variant L384A L387A W412A)
Autophagy-related protein 19: B8 Autophagy-related protein 19 with L384A, L387A
For the molecule B12, the “relative binding (EGFP-Atg8 signal on beads, normalized to wild-type GST-Atg19 CTD)” value with EGFP-Atg8 stood at 7%.

B13: peptide containing the canonical 412WEEL415 motif (Atg19, 403…415) (peptide)
peptide: GDDNEKALTWEEL
In the case of B13, in assay [7], the Kd was 2800 nM.

B14: 12 amino acid peptide containing 384LPEL387 of Atg19 (peptide)
chain: QIDTLPELDDSS
As for B14, the Kd in [5] is approximately 590 µM.

B15: 12 amino acid peptide containing 376FYSF379 of Atg19 (peptide)
chain: SQEPFYSFQIDT
B15: in assay [5], the dissociation constant (Kd) is approximately 330 µM.
